Measurements reported in article PMC5314774 (Nucleic Acids Research, 2016).

T1: LAGE3 (bacterial, 6xHIS-GST removed) (human, UniProt Q14657 1-143)
T1 sequence: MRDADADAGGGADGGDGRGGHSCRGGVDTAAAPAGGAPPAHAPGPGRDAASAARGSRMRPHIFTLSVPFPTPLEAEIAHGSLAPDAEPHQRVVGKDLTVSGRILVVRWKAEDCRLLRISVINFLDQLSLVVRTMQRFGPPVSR

B1: C14ORF142 (bacterial, GST removed) (natural protein)
chain: MELLGEYVGQEGKPQKLRVSCEAPGDGDPFQGLLSGVAQMKDMVTELFDPLVQGEVQHRVAAAPDEDLDGDDEDDAEDENNIDNRTNFDGPSAKRPKTPS
B2: C14ORF142 (insect cells, polycistronic KEOPS vector) (natural protein)
chain: B1 chain

How the values were obtained:
[1] = target: T1, LAGE3 (bacterial, 6xHIS-GST removed); assay: SEC
[2] = target: 4-subunit KEOPS complex (OSGEP, PRPK, TPRKB and LAGE3) (human, UniProt Q9NPF4;Q96S44;Q9Y3C4;Q14657); assay: SEC-MALS

| Binder | stoichiometry N [1] | stoichiometry N [2] |
| --- | --- | --- |
| B1 | 1 | – |
| B2 | – | 1 |
